Assay results as given in paper PMC3130265.

Target: GST-Sam68(1-277) (UniProt Q60749 1-277)
Assay: EMSA

Sequence of GST-Sam68(1-277) (Q60749 1-277): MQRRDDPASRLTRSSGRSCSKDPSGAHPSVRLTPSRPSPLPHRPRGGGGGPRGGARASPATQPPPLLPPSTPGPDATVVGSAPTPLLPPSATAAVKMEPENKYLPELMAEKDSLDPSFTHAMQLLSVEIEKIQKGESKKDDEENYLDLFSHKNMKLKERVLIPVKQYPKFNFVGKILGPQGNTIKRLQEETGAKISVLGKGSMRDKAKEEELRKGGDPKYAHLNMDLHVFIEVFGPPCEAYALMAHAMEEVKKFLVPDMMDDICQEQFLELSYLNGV

Q: Does UAUUUAAUUCAUAAAUUUUGUUUUGUUUCUAGGGA (ssRNA) [Sgce WT probe (intron 7/exon 8 boundary)] bind?
A: Result: binds
